# Data from publication PMC6804253, “Predicting and Experimentally Validating Hot-Spot Residues at Protein–Protein Interfaces” (ACS Chemical Biology, 2019).
# Like-named read-outs stand apart in the source and are kept apart here.
# Key:
# [1] = tested on: PPIs of the SKEMPI data set (by PDBID); experiment: SKEMPI experimental ΔΔG, single mutations to alanine; type: binding; settings: for sk_class (class of SKEMPI experimental ΔΔG) / sk_class (class of the SKEMPI experimental ΔΔG): class by ΔΔG threshold 4.184 kJ/mol, ref SKEMPI; for sk_class: class of the SKEMPI experimental ΔΔG
# [2] = tested on: PPIs of the SKEMPI data set (by PDBID); settings: single mutation to alanine, ref SKEMPI, cited from earlier work; for sk_ddG_kJ (SKEMPI experimental ΔΔG, mutation to alanine): r_group DERKH
# [3] = PPI given by PDBID, sheet sortedByGroup, r_group FAMILYVW
# [4] = complex given by PDBID, mutation by mut_pdb
# [5] = PPI given by PDBID, sheet sortedByGroup
Molecule,sk_class (class of SKEMPI experimental ΔΔG) [1],"sk_ddG_kJ (SKEMPI experimental ΔΔG) [2, 3] [kJ]",sk_class [1],"sk_ddG_kJ (SKEMPI experimental ΔΔG) [2, 4] [kJ]",also measured
"1IAR IA11A (protein, UniProt P05112 25-153, looked up, variant I11A) Interleukin-4: HKCDITLQEIAKTLNSLTEQKTLCTELTVTDIFAASKNTTEKETFCRAATVLRQFYSHHEKDTRCLGATAQQFHRHKQLIRFLKRLDRNLWGLAGLNSCPVKEANQSTLENFLERLKTIMREKYSKCSS",Neutral (neutral (little effect) 4.184 kJ/mol < ΔΔG > −4.184 kJ/mol),0.29,,,
"1IAR WA91A (protein, UniProt P05112 25-153, looked up, variant W91A) Interleukin-4: HKCDITLQEIIKTLNSLTEQKTLCTELTVTDIFAASKNTTEKETFCRAATVLRQFYSHHEKDTRCLGATAQQFHRHKQLIRFLKRLDRNLAGLAGLNSCPVKEANQSTLENFLERLKTIMREKYSKCSS",Neutral (neutral (little effect) 4.184 kJ/mol < ΔΔG > −4.184 kJ/mol),3.05,,,
"1IAR FA82A (protein, UniProt P05112 25-153, looked up, variant F82A) Interleukin-4: HKCDITLQEIIKTLNSLTEQKTLCTELTVTDIFAASKNTTEKETFCRAATVLRQFYSHHEKDTRCLGATAQQFHRHKQLIRALKRLDRNLWGLAGLNSCPVKEANQSTLENFLERLKTIMREKYSKCSS",Neutral (neutral (little effect) 4.184 kJ/mol < ΔΔG > −4.184 kJ/mol),-0.38,,,
"1DAN GT43A (protein, UniProt P13726 33-251, looked up, variant G43A, extracellular domain) extracellular domain: SGTTNTVAAYNLTWKSTNFKTILEWEPKPVNQVYTVQISTKSADWKSKCFYTTDTECDLTDEIVKDVKQTYLARVFSYPAGNVESTGSAGEPLYENSPEFTPYLETNLGQPTIQSFEQVGTKVNVTVEDERTLVRRNNTFLSLRDVFGKDLIYTLYYWKSSSSGKKTAKTNTNEFLIDVDKGENYCFSVQAVIPSRTVNRKSTDSPVECMGQEKGEFRE",,,Neutral (neutral (little effect) 4.184 kJ/mol < ΔΔG > −4.184 kJ/mol),0.29,
"1DAN PU92A (protein, UniProt P13726 33-251, looked up, variant P92A, extracellular domain) extracellular domain: SGTTNTVAAYNLTWKSTNFKTILEWEPKPVNQVYTVQISTKSGDWKSKCFYTTDTECDLTDEIVKDVKQTYLARVFSYPAGNVESTGSAGEALYENSPEFTPYLETNLGQPTIQSFEQVGTKVNVTVEDERTLVRRNNTFLSLRDVFGKDLIYTLYYWKSSSSGKKTAKTNTNEFLIDVDKGENYCFSVQAVIPSRTVNRKSTDSPVECMGQEKGEFRE",,,Neutral (neutral (little effect) 4.184 kJ/mol < ΔΔG > −4.184 kJ/mol),-0.79,
"1EMV GA49A (protein, UniProt P13479 1-86, looked up, variant G49A) Colicin-E9 immunity protein: MELKHSISDYTEAEFLQLVTTICNADTSSEEELVKLVTHFEEMTEHPSASDLIYYPKEGDDDSPSGIVNTVKQWRAANGKSGFKQG",,,Positive (positive (a hot residue) ΔΔG ≥ 4.184 kJ/mol),6.23,
"1EMV PA56A (protein, UniProt P13479 1-86, looked up, variant P56A) Colicin-E9 immunity protein: MELKHSISDYTEAEFLQLVTTICNADTSSEEELVKLVTHFEEMTEHPSGSDLIYYAKEGDDDSPSGIVNTVKQWRAANGKSGFKQG",,,Positive (positive (a hot residue) ΔΔG ≥ 4.184 kJ/mol),5.19,
"1JRH YI49A (protein, UniProt P15260 18-245, looked up, variant Y49A, extracellular domain) extracellular domain: EMGTADLGPSSVPTPTNVTIESYNMNPIVYWEYQIMPQVPVFTVEVKNAGVKNSEWIDACINISHHYCNISDHVGDPSNSLWVRVKARVGQKESAYAKSEEFAVCRDGKIGPPKLDIRKEEKQIMIDIFHPSVFVNGDEQEVDYDPETTCYIRVYNVYVRMNGSEIQYKILTQKEDDCDEIQCQLAIPVSSLNSQYCVSAEGVLHVWGVTTEKSKEVCITIFNSSIKG",Positive (positive (a hot residue) ΔΔG ≥ 4.184 kJ/mol),15.31,,,
"1JRH GI50A (protein, UniProt P15260 18-245, looked up, variant G50A, extracellular domain) extracellular domain: EMGTADLGPSSVPTPTNVTIESYNMNPIVYWEYQIMPQVPVFTVEVKNYAVKNSEWIDACINISHHYCNISDHVGDPSNSLWVRVKARVGQKESAYAKSEEFAVCRDGKIGPPKLDIRKEEKQIMIDIFHPSVFVNGDEQEVDYDPETTCYIRVYNVYVRMNGSEIQYKILTQKEDDCDEIQCQLAIPVSSLNSQYCVSAEGVLHVWGVTTEKSKEVCITIFNSSIKG",,,Positive (positive (a hot residue) ΔΔG ≥ 4.184 kJ/mol),18.33,
"1JRH WI82A (protein, UniProt P15260 18-245, looked up, variant W82A, extracellular domain) extracellular domain: EMGTADLGPSSVPTPTNVTIESYNMNPIVYWEYQIMPQVPVFTVEVKNYGVKNSEWIDACINISHHYCNISDHVGDPSNSLAVRVKARVGQKESAYAKSEEFAVCRDGKIGPPKLDIRKEEKQIMIDIFHPSVFVNGDEQEVDYDPETTCYIRVYNVYVRMNGSEIQYKILTQKEDDCDEIQCQLAIPVSSLNSQYCVSAEGVLHVWGVTTEKSKEVCITIFNSSIKG",Positive (positive (a hot residue) ΔΔG ≥ 4.184 kJ/mol),18.12,,,
"1JRH VI51A (protein, UniProt P15260 18-245, looked up, variant V51A, extracellular domain) extracellular domain: EMGTADLGPSSVPTPTNVTIESYNMNPIVYWEYQIMPQVPVFTVEVKNYGAKNSEWIDACINISHHYCNISDHVGDPSNSLWVRVKARVGQKESAYAKSEEFAVCRDGKIGPPKLDIRKEEKQIMIDIFHPSVFVNGDEQEVDYDPETTCYIRVYNVYVRMNGSEIQYKILTQKEDDCDEIQCQLAIPVSSLNSQYCVSAEGVLHVWGVTTEKSKEVCITIFNSSIKG",Positive (positive (a hot residue) ΔΔG ≥ 4.184 kJ/mol),6.19,,,
"1A4Y EA287A (protein, UniProt P13489 2-461, looked up, variant E287A) Ribonuclease inhibitor: SLDIQSLDIQCEELSDARWAELLPLLQQCQVVRLDDCGLTEARCKDISSALRVNPALAELNLRSNELGDVGVHCVLQGLQTPSCKIQKLSLQNCCLTGAGCGVLSSTLRTLPTLQELHLSDNLLGDAGLQLLCEGLLDPQCRLEKLQLEYCSLSAASCEPLASVLRAKPDFKELTVSNNDINEAGVRVLCQGLKDSPCQLEALKLESCGVTSDNCRDLCGIVASKASLRELALGSNKLGDVGMAELCPGLLHPSSRLRTLWIWECGITAKGCGDLCRVLRAKESLKALSLAGNELGDEGARLLCETLLEPGCQLESLWVKSCSFTAACCSHFSSVLAQNRFLLELQISNNRLEDAGVRELCQGLGQPGSVLRVLWLADCDVSDSSCSSLAATLLANHSLRELDLSNNCLGDAGILQLVESVRQPGCLLEQLVLYDIYWSEEMEDRLQALEKDKPSLRVIS",,,,,"sk_class (class of the SKEMPI experimental ΔΔG) [1]: Neutral (neutral (little effect) 4.184 kJ/mol < ΔΔG > −4.184 kJ/mol); sk_ddG_kJ (SKEMPI experimental ΔΔG, mutation to alanine) [2, 5]: 0.38 kJ"
"1A4Y EA344A (protein, UniProt P13489 2-461, looked up, variant E344A) Ribonuclease inhibitor: SLDIQSLDIQCEELSDARWAELLPLLQQCQVVRLDDCGLTEARCKDISSALRVNPALAELNLRSNELGDVGVHCVLQGLQTPSCKIQKLSLQNCCLTGAGCGVLSSTLRTLPTLQELHLSDNLLGDAGLQLLCEGLLDPQCRLEKLQLEYCSLSAASCEPLASVLRAKPDFKELTVSNNDINEAGVRVLCQGLKDSPCQLEALKLESCGVTSDNCRDLCGIVASKASLRELALGSNKLGDVGMAELCPGLLHPSSRLRTLWIWECGITAKGCGDLCRVLRAKESLKELSLAGNELGDEGARLLCETLLEPGCQLESLWVKSCSFTAACCSHFSSVLAQNRFLLALQISNNRLEDAGVRELCQGLGQPGSVLRVLWLADCDVSDSSCSSLAATLLANHSLRELDLSNNCLGDAGILQLVESVRQPGCLLEQLVLYDIYWSEEMEDRLQALEKDKPSLRVIS",,,,,"sk_class (class of the SKEMPI experimental ΔΔG) [1]: Neutral (neutral (little effect) 4.184 kJ/mol < ΔΔG > −4.184 kJ/mol); sk_ddG_kJ (SKEMPI experimental ΔΔG, mutation to alanine) [2, 5]: 0.67 kJ"
"1A4Y KA320A (protein, UniProt P13489 2-461, looked up, variant K320A) Ribonuclease inhibitor: SLDIQSLDIQCEELSDARWAELLPLLQQCQVVRLDDCGLTEARCKDISSALRVNPALAELNLRSNELGDVGVHCVLQGLQTPSCKIQKLSLQNCCLTGAGCGVLSSTLRTLPTLQELHLSDNLLGDAGLQLLCEGLLDPQCRLEKLQLEYCSLSAASCEPLASVLRAKPDFKELTVSNNDINEAGVRVLCQGLKDSPCQLEALKLESCGVTSDNCRDLCGIVASKASLRELALGSNKLGDVGMAELCPGLLHPSSRLRTLWIWECGITAKGCGDLCRVLRAKESLKELSLAGNELGDEGARLLCETLLEPGCQLESLWVASCSFTAACCSHFSSVLAQNRFLLELQISNNRLEDAGVRELCQGLGQPGSVLRVLWLADCDVSDSSCSSLAATLLANHSLRELDLSNNCLGDAGILQLVESVRQPGCLLEQLVLYDIYWSEEMEDRLQALEKDKPSLRVIS",,,,,"sk_class (class of the SKEMPI experimental ΔΔG) [1]: Neutral (neutral (little effect) 4.184 kJ/mol < ΔΔG > −4.184 kJ/mol); sk_ddG_kJ (SKEMPI experimental ΔΔG, mutation to alanine) [2, 5]: -1.30 kJ"
"1A4Y SA289A (protein, UniProt P13489 2-461, looked up, variant S289A) Ribonuclease inhibitor: SLDIQSLDIQCEELSDARWAELLPLLQQCQVVRLDDCGLTEARCKDISSALRVNPALAELNLRSNELGDVGVHCVLQGLQTPSCKIQKLSLQNCCLTGAGCGVLSSTLRTLPTLQELHLSDNLLGDAGLQLLCEGLLDPQCRLEKLQLEYCSLSAASCEPLASVLRAKPDFKELTVSNNDINEAGVRVLCQGLKDSPCQLEALKLESCGVTSDNCRDLCGIVASKASLRELALGSNKLGDVGMAELCPGLLHPSSRLRTLWIWECGITAKGCGDLCRVLRAKESLKELALAGNELGDEGARLLCETLLEPGCQLESLWVKSCSFTAACCSHFSSVLAQNRFLLELQISNNRLEDAGVRELCQGLGQPGSVLRVLWLADCDVSDSSCSSLAATLLANHSLRELDLSNNCLGDAGILQLVESVRQPGCLLEQLVLYDIYWSEEMEDRLQALEKDKPSLRVIS",,,Neutral (neutral (little effect) 4.184 kJ/mol < ΔΔG > −4.184 kJ/mol),0.13,
